# Target: T1, Aβ42-GFP (Homo sapiens, UniProt P05067)
# T1 construct: a chimeric fusion of the human Aβ(1-42) peptide (Aβ42) with GFP; expressed in transfected cells; host or cells: E. coli BL21(DE3)
# Test: High-throughput sequencing of pSICLOPPS vectors isolated after bacterial sorting for enhanced Aβ42-GFP fluorescence
# Settings: for Reads/Total TXXXR reads (%): relative to total TXXXR reads; for Reads/Total pentapeptide reads (%): relative to total pentapeptide reads; for Reads/Total peptide reads (%): relative to total peptide reads
# In short: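 Peptide inserts recovered from repeatedly sorted high-GFP clones were sequenced on Ion Torrent, excluding stop-codon-containing reads. Sorting used BL21(DE3) cells carrying pETAβ42-GFP plus the tetra-, penta- and hexapeptide pSICLOPPS library. Peptide production was induced with 0.002% L-arabinose and the reporter with 0.1 mM IPTG at OD600 ~0.5, at 37° C.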
# [1] = after the second round of bacterial sorting
# [2] = high-throughput sequencing of isolated pSICLOPPS-NuX1X2X3-X5 vectors after the second round of bacterial sorting for enhanced Aβ42-GFP fluorescence, selected cyclo-TXXXR pentapeptides
# [3] = after the second round of bacterial sorting for enhanced Aβ42-GFP fluorescence
# [4] = pSICLOPPS-NuX1X2X3-X5 vectors after the second round of bacterial sorting for enhanced Aβ42-GFP fluorescence
Substance,Reads/Total TXXXR reads (%) [1],Reads/Total pentapeptide reads (%) [1],Reads/Total peptide reads (%) [1],Number of reads [2],Reads/Total TXXXR reads (%) [3],Reads/Total pentapeptide reads (%) [3],Reads/Total peptide reads (%) [3],Number of reads [4]
AβC5-361 (TTKWR; head-to-tail cyclic),0.006%,0.003%,0.002%,108,,,,
AβC5-362 (TTWDR; head-to-tail cyclic),0.006%,0.003%,0.002%,107,,,,
AβC5-364 (TTMAR; head-to-tail cyclic),0.006%,0.003%,0.002%,106,,,,
AβC5-365 (TTGGR; head-to-tail cyclic),0.006%,0.003%,0.002%,106,,,,
AβC5-366 (TTMVR; head-to-tail cyclic),0.006%,0.003%,0.002%,105,,,,
AβC5-375 (TNLAR; head-to-tail cyclic),0.005%,0.002%,0.002%,97,,,,
AβC5-376 (TIRDR; head-to-tail cyclic),0.005%,0.002%,0.002%,96,,,,
AβC5-378 (TTTGR; head-to-tail cyclic),0.005%,0.002%,0.002%,96,,,,
AβC5-379 (TRLGR; head-to-tail cyclic),0.005%,0.002%,0.002%,95,,,,
AβC5-381 (TTHTR; head-to-tail cyclic),0.005%,0.002%,0.002%,93,,,,
AβC5-382 (TTITR; head-to-tail cyclic),0.005%,0.002%,0.002%,92,,,,
AβC5-384 (TTYTR; head-to-tail cyclic),0.005%,0.002%,0.002%,90,,,,
AβC5-385 (TTLYR; head-to-tail cyclic),,,,,0.005%,0.002%,0.002%,90
AβC5-389 (THLDR; head-to-tail cyclic),,,,,0.005%,0.002%,0.002%,89
AβC5-391 (TLLIR; head-to-tail cyclic),,,,,0.005%,0.002%,0.002%,88
AβC5-392 (TTCDR; head-to-tail cyclic),,,,,0.005%,0.002%,0.002%,87
AβC5-393 (TTGRR; head-to-tail cyclic),,,,,0.005%,0.002%,0.002%,87
AβC5-394 (TTVSR; head-to-tail cyclic),,,,,0.005%,0.002%,0.002%,86

Substance,Reads/Total TXXXR reads (%) [1],Reads/Total pentapeptide reads (%) [1],Reads/Total peptide reads (%) [1],Number of reads [2],Reads/Total TXXXR reads (%) [3],Reads/Total pentapeptide reads (%) [3],Reads/Total peptide reads (%) [3],Number of reads [4]
AβC5-395 (TTQHR; head-to-tail cyclic),,,,,0.004%,0.002%,0.002%,85
AβC5-396 (TTTPR; head-to-tail cyclic),,,,,0.004%,0.002%,0.002%,84
AβC5-399 (TAFAR; head-to-tail cyclic),,,,,0.004%,0.002%,0.002%,82
AβC5-405 (TTSHR; head-to-tail cyclic),,,,,0.004%,0.002%,0.002%,78
AβC5-410 (TVLGR; cyclic pentapeptide),,,,,0.004%,0.002%,0.002%,76
AβC5-411 (TTQRR; cyclic pentapeptide),,,,,0.004%,0.002%,0.002%,75
AβC5-413 (TSHAR; cyclic pentapeptide),,,,,0.004%,0.002%,0.002%,74
AβC5-415 (TTTCR; cyclic pentapeptide),,,,,0.004%,0.002%,0.002%,74
AβC5-422 (TAWRR; cyclic pentapeptide),,,,,0.004%,0.002%,0.002%,72
AβC5-428 (TTCGR; cyclic pentapeptide),,,,,0.004%,0.002%,0.002%,69
AβC5-434 (TTSGR; cyclic pentapeptide),,,,,0.003%,0.002%,0.001%,65
AβC5-438 (TTTSR; cyclic pentapeptide),,,,,0.003%,0.002%,0.001%,62
AβC5-440 (TATGR; cyclic pentapeptide),,,,,0.003%,0.002%,0.001%,61
AβC5-441 (TAWDR; cyclic pentapeptide),,,,,0.003%,0.002%,0.001%,61
AβC5-443 (TTHHR; cyclic pentapeptide),,,,,0.003%,0.001%,0.001%,60
AβC5-448 (TAYAR; cyclic pentapeptide),,,,,0.003%,0.001%,0.001%,58
AβC5-449 (TANAR; cyclic pentapeptide),,,,,0.003%,0.001%,0.001%,58

# — patent publication US12559863B2, “Macrocyclic modulators of disease associated protein misfolding and aggregation” (RESQ BIOTECH, priority 2017, dated 2026)
